Reference: patent US20200347133A1 (INHIBRX, published 2020)
Positions count from the first letter of the chain named.

B1: hz1E4v2 sdAb (hz1E4v2 VHH domain fused to human IgG1 xELL Fc region) (Fc fusion)
chain: EVQLVESGGGEVQPGGSLRLSCAASGSGFSASLMSWHRQAPGKQRDLVASITRDGRANYVESVKGRFTISRDNAKNTLYLQMSSLRAEDTAVYYCHAYSFDYPIRSYWGQGTLVTVDKTHTCPPCPAPGGPSVFLFPPKPKDTLMISRTPEVTCVVVDVSHEDPEVKFNWYVDGVEVHNAKTKPREEQYNSTYRVVSVLTVLHQDWLNGKEYKCKVSNKALPAPIEKTISKAKGQPREPQVYTLPPSRDELTKNQVSLTCLVKGFYPSDIAVEWESNGQPENNYKTTPPVLDSDGSFFLYSKLTVDKSRWQQGNVFSCSVMHEALHNHYTQKSLSLSPGK
notes: VHH-Fc; no linker stated; also called hz1E4v2-IgG1
B2: G11 sdAb (G11 VHH domain fused to human IgG1 xELL Fc region) (Fc fusion)
chain: EVQLVQSGGGSVQVGGSLRLSCAASGSTLNIDHIGWYRQAPGKERELVGVISSGAGPNYADSVKGRFTISRDNAKNTVYLQMNSLKPEDTAVYNCNAWIDYGSGLPQNYWGQGTQVTVDKTHTCPPCPAPGGPSVFLFPPKPKDTLMISRTPEVTCVVVDVSHEDPEVKFNWYVDGVEVHNAKTKPREEQYNSTYRVVSVLTVLHQDWLNGKEYKCKVSNKALPAPIEKTISKAKGQPREPQVYTLPPSRDELTKNQVSLTCLVKGFYPSDIAVEWESNGQPENNYKTTPPVLDSDGSFFLYSKLTVDKSRWQQGNVFSCSVMHEALHNHYTQKSLSLSPGK
notes: VHH-Fc; no linker stated
B3: 1C7 sdAb (1C7 VHH domain fused to human IgG1 xELL Fc region) (Fc fusion)
chain: QVQLQQSGGGLVQAGGSLRLSCAASGRTFSGYIMGWFRQVPGKERELVARISGNNLSTEYGGSVKGRFTISRDSAKETMYLQMNSLKPEDTAIYYCAAEYDYSSGDFVYWGQGTQVTVDKTHTCPPCPAPGGPSVFLFPPKPKDTLMISRTPEVTCVVVDVSHEDPEVKFNWYVDGVEVHNAKTKPREEQYNSTYRVVSVLTVLHQDWLNGKEYKCKVSNKALPAPIEKTISKAKGQPREPQVYTLPPSRDELTKNQVSLTCLVKGFYPSDIAVEWESNGQPENNYKTTPPVLDSDGSFFLYSKLTVDKSRWQQGNVFSCSVMHEALHNHYTQKSLSLSPGK
notes: VHH-Fc; no linker stated; also called 1C7-IgG1
B4: 1G3 sdAb (1G3 VHH domain fused to human IgG1 xELL Fc region) (Fc fusion)
chain: EVQLQQSGGGEVQPGGSLRLSCEASGFTFSSYAMGWFRQAPGKGREWVAAITTSGDTTYYAESVKGRFTISRDNAKNTVYLQMSSLRAEDTAVYYCAAHRGGGVIDYWGQGTQVTVDKTHTCPPCPAPGGPSVFLFPPKPKDTLMISRTPEVTCVVVDVSHEDPEVKFNWYVDGVEVHNAKTKPREEQYNSTYRVVSVLTVLHQDWLNGKEYKCKVSNKALPAPIEKTISKAKGQPREPQVYTLPPSRDELTKNQVSLTCLVKGFYPSDIAVEWESNGQPENNYKTTPPVLDSDGSFFLYSKLTVDKSRWQQGNVFSCSVMHEALHNHYTQKSLSLSPGK
notes: VHH-Fc; no linker stated
B5: hz1G3v3 sdAb (hz1G3v3 VHH domain fused to human IgG1 xELL Fc region) (Fc fusion)
chain: B4 chain with Q5V, Q6E, E23A, Q113L
notes: VHH-Fc; no linker stated; also called hz1G3v3-IgG1
B6: 1E4 sdAb (1E4 VHH domain fused to human IgG1 xELL Fc region) (Fc fusion)
chain: QVQLQQSGGGSVQAGGSLRLSCVASGSGFSASLMSWHRQAPGSQRDLVASITRDGRANYVDSVKDRFTISRDNAKNTAYLQMDSLKPEDTAAYYCHAYSFDYPIRSYWGQGTQVTVDKTHTCPPCPAPGGPSVFLFPPKPKDTLMISRTPEVTCVVVDVSHEDPEVKFNWYVDGVEVHNAKTKPREEQYNSTYRVVSVLTVLHQDWLNGKEYKCKVSNKALPAPIEKTISKAKGQPREPQVYTLPPSRDELTKNQVSLTCLVKGFYPSDIAVEWESNGQPENNYKTTPPVLDSDGSFFLYSKLTVDKSRWQQGNVFSCSVMHEALHNHYTQKSLSLSPGK
notes: VHH-Fc; no linker between VHH and Fc is stated; also called 1E4-IgG1

target: T1, CD33M, full length human CD33 protein expressed on transfected cells (human, UniProt P20138 18-303); experiment: flow cytometry on cells transfected with CD33M; apparent Kd, one-site fit
T1 construct: also called full length CD33
Experimental: (§1) Binding of sdAbs to human CD33 was assessed by flow cytometry. […] MOLM-13 cells were transiently transfected with a plasmid encoding a sequence comprising “CD33M” (SEQ ID NO: 112) or a plasmid encoding a sequence comprising a truncated version, “CD33m” (SEQ ID NO: 113). The sequence encoded by the CD33M plasmid includes the leader sequence, full extracellular domain, transmembrane domain, and cytoplasmic domain. The sequence encoded by the CD33m plasmid includes the leader sequence, the membrane proximal IgC2 domain, and the transmembrane domain. Untransfected HEK 293 cells were used as CD33-negative cells. Each cell type was plated at 30,000 cells/well in FACS buffer (PBS 1% BSA, 0.1% NaN₃ pH 7.4) on a 96-well round-bottom plate. The sdAbs were diluted in FACS buffer in a 3-fold, 11 point serial dilution. The sdAb dilutions were added to the plated cells, and assay plates were incubated for 30 minutes at 4° C. After washing twice in 150 μL of FACS buffer, cells in each well were resuspended in 100 μL of 1:2000 Alexa Fluor 647-conjugated Anti-Human IgG secondary diluted in FACS buffer and incubated at 4° C. for 30 minutes. The cells were washed twice more, then bound antibody was detected by flow cytometry.
(§2) Flow cytometric analysis was performed on an Intellicyte iQue Plus and fluorescence was plotted as median fluorescence intensity. The apparent affinity (Kd, nM) was determined using one site binding non-linear regression in PRISM graph software.

T1 sequence (P20138 18-303): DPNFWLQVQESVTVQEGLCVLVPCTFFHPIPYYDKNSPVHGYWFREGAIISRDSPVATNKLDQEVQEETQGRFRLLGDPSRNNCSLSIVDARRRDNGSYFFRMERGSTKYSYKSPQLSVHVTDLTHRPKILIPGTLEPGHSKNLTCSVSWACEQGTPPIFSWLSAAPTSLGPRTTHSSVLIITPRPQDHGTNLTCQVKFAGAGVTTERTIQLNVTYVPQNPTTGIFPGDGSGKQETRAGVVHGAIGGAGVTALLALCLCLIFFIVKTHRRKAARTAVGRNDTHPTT

Row | Kd [nM] | Binder
1 | 0.32 | B1
2 | 1.1 | B2
3 | 6.64 | B3
4 | 0.49 | B4
5 | 1.6 | B5
6 | 0.05 | B6

target: T1, CD33M, full length human CD33 protein …; experiment: flow cytometry on MOLM-13 cells transfected with CD33 (CD33M per Table 3), anti-human IgG Alexa Fluor 647 secondary, median fluorescence
Experimental: as §1, §2

Row | EC50 (read off the curve) [nM] | Binder
7 | ~0.3 | B1
8 | ~2 | B5
9 | ~0.07 | B6
